The values that follow come from US20230122503A1, “ANTI-PSMA RADIOCONJUGATES AND USES THEREOF” (Janssen Biotech, Inc., priority 2021, published 2023).

The test concerns the target human prostate-specific membrane antigen (PSMA), full length, on cells (human) (UniProt Q04609). The test can be described thus: cell-based or functional assay.

Sequence of human prostate-specific membrane antigen (PSMA), full length, on cells (human) (Q04609 whole entry): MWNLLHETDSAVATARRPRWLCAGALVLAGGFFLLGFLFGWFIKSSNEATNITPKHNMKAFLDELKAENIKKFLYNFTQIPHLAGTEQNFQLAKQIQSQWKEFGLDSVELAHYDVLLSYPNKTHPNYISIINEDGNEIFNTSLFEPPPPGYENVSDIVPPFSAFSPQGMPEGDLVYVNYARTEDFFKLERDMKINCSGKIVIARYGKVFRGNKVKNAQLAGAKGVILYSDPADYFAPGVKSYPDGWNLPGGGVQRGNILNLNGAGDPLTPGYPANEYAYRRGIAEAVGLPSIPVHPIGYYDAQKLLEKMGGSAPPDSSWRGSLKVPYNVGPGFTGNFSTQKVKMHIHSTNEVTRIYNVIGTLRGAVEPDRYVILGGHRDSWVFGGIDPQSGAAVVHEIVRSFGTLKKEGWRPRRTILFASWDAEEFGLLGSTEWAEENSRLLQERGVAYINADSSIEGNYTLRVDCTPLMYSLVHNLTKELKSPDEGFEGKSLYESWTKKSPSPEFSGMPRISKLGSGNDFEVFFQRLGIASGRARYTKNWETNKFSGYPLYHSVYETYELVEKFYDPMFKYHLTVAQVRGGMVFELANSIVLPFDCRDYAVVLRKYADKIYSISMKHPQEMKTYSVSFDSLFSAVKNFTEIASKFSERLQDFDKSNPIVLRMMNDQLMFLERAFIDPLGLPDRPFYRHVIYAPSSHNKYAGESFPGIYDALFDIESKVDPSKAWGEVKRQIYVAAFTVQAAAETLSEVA

The substance “Isotype control conjugated to DX8951 (antibody)” registered an IC50 (cytotoxicity on 22RV1 cells, DX8951 ADC, DAR 8, 6 d) of 57.2 nM.

Substance “Isotype control conjugated to MMAF (antibody)” returned an IC25 (cytotoxicity on 22RV1 cells, MMAF ADC, DAR 4.3, 6 d) greater than 100 nM.
